Assay results reported in patent US20210047399A1 (PHANES THERAPEUTICS, published 2021).

Tests used:
[1] = target: T1, human CD47 extracellular domain (CD47(ECD)) (human, UniProt Q08722 19-139); experiment: ELISA, human CD47(ECD) coated on plate
T1 construct: extracellular domain; Bought protein; also called human CD47(ECD); immobilized CD47
Description: The purified mAbs were analyzed for their ability to bind to the extracellular domain of CD47 (CD47(ECD)) in an ELISA assay as follows: human CD47(ECD) (AcroBio, Cat #: CD7-HA2E9-50 μg) in carbonate coating buffer (50 μL/well at 1 μg/mL) was coated on a 96-well ELISA plate for 1 hour at room temperature. After washing, the plate was blocked in 5% BSA in TBST for 1 hour at room temperature and washed again. In each well of the plate, an antibody at 50 μL/well at various concentrations was added and incubated for 1 hour at room temperature. The plate was washed and the binding of the antibody to the immobilized CD47 was detected by incubating with anti-human IgG conjugated to horseradish peroxidase (hIgG-HRP) (ThermoFisher Scientific, Cat #: H10007) for 60 minutes at room temperature. Then after washing, the ELISA was developed using One-step Detection Solution (ThermoFisher Scientific, Cat #: 34028) and measured as the absorbance at 450 nm.

[2] = target: T2, recombinant FLAG-huDLL3 (human DLL3 extracellular domain with FLAG tag at the N-terminus) (human, UniProt Q9NYJ7 27-492); experiment: ELISA, FLAG-huDLL3 coated on plate
T2 construct: Bought (Adipogen, Cat AG40B-0151); the whole entry is named here; also called recombinant DLL3 protein; recombinant human FLAG-huDLL3; not shown: N-terminal FLAG tag
T2 sequence: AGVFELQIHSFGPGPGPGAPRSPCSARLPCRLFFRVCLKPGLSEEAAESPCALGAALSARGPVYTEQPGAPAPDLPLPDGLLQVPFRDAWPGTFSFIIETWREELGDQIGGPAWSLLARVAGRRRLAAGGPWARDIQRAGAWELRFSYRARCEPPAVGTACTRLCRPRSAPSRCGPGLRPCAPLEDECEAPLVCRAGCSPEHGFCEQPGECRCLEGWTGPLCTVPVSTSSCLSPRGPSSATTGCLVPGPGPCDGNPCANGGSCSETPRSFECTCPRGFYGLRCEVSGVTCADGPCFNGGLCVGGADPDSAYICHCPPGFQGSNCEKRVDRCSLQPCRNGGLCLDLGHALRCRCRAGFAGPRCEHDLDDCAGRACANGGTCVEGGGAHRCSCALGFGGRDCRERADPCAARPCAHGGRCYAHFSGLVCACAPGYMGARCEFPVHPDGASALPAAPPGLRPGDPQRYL

[3] = target: T1, human CD47 extracellular domain …; experiment: ELISA, CD47(ECD) coated on regular plate (FIG. 5)

T1 sequence (Q08722 19-139 limits assumed): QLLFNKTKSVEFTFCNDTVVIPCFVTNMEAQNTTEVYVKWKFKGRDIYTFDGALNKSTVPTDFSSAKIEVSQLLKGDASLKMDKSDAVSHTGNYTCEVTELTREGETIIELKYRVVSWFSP

| Binder | EC50 [1] [nM] | also measured |
| --- | --- | --- |
| humanized anti-CD47 mAb KH3L4 (antibody, V domains shown) VH: EVRLSQSGGQMKKPGESMRLSCRASGYTFTSYWMHWVRQAPGRRLEWIGNIDPSDSETHYARKFQGRATLTVDKYSDTAFLELRSLTSDDTAVYYCAGTDLAYWGRGAPVTVSS VL: EIVMTQSPATLSLSPGETAIISCHASQNINVWLSWYQQRPGQAPRLLIYKASNLHTGIPDRFSGSGWGTDFNLSISNLESGDFGVYYCQQGQSYPWTFGQGTKVEIK | 0.08 |  |
| humanized anti-CD47 mAb KH2L3 (antibody, V domains shown) VH: QVQLVQSGAEVKKPGASVKVSCKASGYTFTSYWMHWVRQAPGQGLEWIGNIDPSDSETHYAQKFQGRVTLTVDKSTSTVYMELSSLRSEDTAVYYCAGTDLAYWGQGTLVTVSS VL: EIVMTQSPATLSLSPGETAIISCHASQNINVWLSWYQQRPGQAPRLLIYKASNLHTGIPDRFSGSGWGTDFNLSISNLESGDFGVYYCQQGQSYPFTFGQGTKVEIK | 0.09 |  |
| humanized anti-DLL3 mAb H1L1 (antibody, V domains shown, Humanized 13P9A) VH: EVRLSQSGGQMKKPGESMRLSCRASGYTFTSYVMHWVRQAPGRRPEWIGYINPYNDATKYARKFQGRATLTSDKYSDTAFLELRSLTSDDTAVYYCARGGYDYDGDYWGRGAPVTVSS VL: EIVMTQSPGTLSLSPGERATLSCHASQNINVWLSWYQQKPGQAPRLLIYKASNLHTGIPDRFSGSGSGTDFTLTISRLEPEDFAVYYCQQGQSYPFTFGQGTKVEIK |  | EC50 [2]: 0.13 nM |
| anti-CD47/DLL3 bispecific antibody BA1(C) (bispecific antibody, BA1 further modified by S354C on the anti-CD47 HC (KH2) and Y349C on the anti-DLL3 HC (H1); not shown: IgG1 heavy chain constant region, knob with added cysteine; IgG1 heavy chain constant region, hole with added cysteine; kappa light chain constant region) heavy 1: QVQLVQSGAEVKKPGASVKVSCKASGYTFTSYWMHWVRQAPGQGLEWIGNIDPSDSETHYAQKFQGRVTLTVDKSTSTVYMELSSLRSEDTAVYYCAGTDLAYWGQGTLVTVSS heavy 2: EVRLSQSGGQMKKPGESMRLSCRASGYTFTSYVMHWVRQAPGRRPEWIGYINPYNDATKYARKFQGRATLTSDKYSDTAFLELRSLTSDDTAVYYCARGGYDYDGDYWGRGAPVTVSS light: EIVLTQSPGTLSLSPGERATLSCHASQNINVWLSWYQQKPGQAPRLLIYKASNLHTGIPDRFSGSGSGTDFTLTISRLEPEDFAVYYCQQGQSYPFTFGQGTKVEIK |  | binding result [3]: binds |
| humanized anti-CD47 mAb KH1L1 (antibody, V domains shown, Humanized VH of anti-CD47 mAb 17C6A with humanized VL of anti-DLL3 13P9A) VH: QVQLVQSGAEVKKPGSSVKVSCKASGYTFTSYWMHWVRQAPGQGLEWIGNIDPSDSETHYAQKFQGRATLTVDKSTSTAYMELSSLRSEDTAVYYCAGTDLAYWGQGTLVTVSS VL: EIVMTQSPGTLSLSPGERATLSCHASQNINVWLSWYQQKPGQAPRLLIYKASNLHTGIPDRFSGSGSGTDFTLTISRLEPEDFAVYYCQQGQSYPFTFGQGTKVEIK | 1.17 |  |
| anti-CD47/DLL3 bispecific antibody BA4(C) (bispecific antibody, Variable regions of BA1 on the IgG4 framework with the same cysteine mutations as BA1(C); not shown: IgG4 heavy chain constant region ("IgG4 frame work") with the same cysteine mutation as BA1(C); knob mutation not explic; hole mutations not expli; kappa light chain constant region) heavy 1: QVQLVQSGAEVKKPGASVKVSCKASGYTFTSYWMHWVRQAPGQGLEWIGNIDPSDSETHYAQKFQGRVTLTVDKSTSTVYMELSSLRSEDTAVYYCAGTDLAYWGQGTLVTVSS heavy 2: EVRLSQSGGQMKKPGESMRLSCRASGYTFTSYVMHWVRQAPGRRPEWIGYINPYNDATKYARKFQGRATLTSDKYSDTAFLELRSLTSDDTAVYYCARGGYDYDGDYWGRGAPVTVSS light: EIVLTQSPGTLSLSPGERATLSCHASQNINVWLSWYQQKPGQAPRLLIYKASNLHTGIPDRFSGSGSGTDFTLTISRLEPEDFAVYYCQQGQSYPFTFGQGTKVEIK |  | binding result [3]: binds |
| anti-CD47/DLL3 bispecific antibody BA1 (KH2/H1/L2) (bispecific antibody, Common light chain L2; anti-CD47 arm KH2 (knob), anti-DLL3 arm H1 (hole); not shown: IgG1 heavy chain constant region, knob; IgG1 heavy chain constant region, hole; kappa light chain constant region) heavy 1: QVQLVQSGAEVKKPGASVKVSCKASGYTFTSYWMHWVRQAPGQGLEWIGNIDPSDSETHYAQKFQGRVTLTVDKSTSTVYMELSSLRSEDTAVYYCAGTDLAYWGQGTLVTVSS heavy 2: EVRLSQSGGQMKKPGESMRLSCRASGYTFTSYVMHWVRQAPGRRPEWIGYINPYNDATKYARKFQGRATLTSDKYSDTAFLELRSLTSDDTAVYYCARGGYDYDGDYWGRGAPVTVSS light: EIVLTQSPGTLSLSPGERATLSCHASQNINVWLSWYQQKPGQAPRLLIYKASNLHTGIPDRFSGSGSGTDFTLTISRLEPEDFAVYYCQQGQSYPFTFGQGTKVEIK |  | binding result [3]: binds |
| humanized anti-CD47 mAb KH3L1 (antibody, V domains shown) VH: EVRLSQSGGQMKKPGESMRLSCRASGYTFTSYWMHWVRQAPGRRLEWIGNIDPSDSETHYARKFQGRATLTVDKYSDTAFLELRSLTSDDTAVYYCAGTDLAYWGRGAPVTVSS VL: EIVMTQSPGTLSLSPGERATLSCHASQNINVWLSWYQQKPGQAPRLLIYKASNLHTGIPDRFSGSGSGTDFTLTISRLEPEDFAVYYCQQGQSYPFTFGQGTKVEIK | 0.09 |  |
| humanized anti-CD47 mAb KH2L1 (antibody, V domains shown) VH: QVQLVQSGAEVKKPGASVKVSCKASGYTFTSYWMHWVRQAPGQGLEWIGNIDPSDSETHYAQKFQGRVTLTVDKSTSTVYMELSSLRSEDTAVYYCAGTDLAYWGQGTLVTVSS VL: EIVMTQSPGTLSLSPGERATLSCHASQNINVWLSWYQQKPGQAPRLLIYKASNLHTGIPDRFSGSGSGTDFTLTISRLEPEDFAVYYCQQGQSYPFTFGQGTKVEIK | 0.19 |  |
| humanized anti-CD47 mAb KH1L2 (antibody, V domains shown) VH: QVQLVQSGAEVKKPGSSVKVSCKASGYTFTSYWMHWVRQAPGQGLEWIGNIDPSDSETHYAQKFQGRATLTVDKSTSTAYMELSSLRSEDTAVYYCAGTDLAYWGQGTLVTVSS VL: EIVLTQSPGTLSLSPGERATLSCHASQNINVWLSWYQQKPGQAPRLLIYKASNLHTGIPDRFSGSGSGTDFTLTISRLEPEDFAVYYCQQGQSYPFTFGQGTKVEIK | 0.64 |  |
| humanized anti-DLL3 mAb H1L2 (antibody, V domains shown, also called anti-DLL3 parental mAb) VH: EVRLSQSGGQMKKPGESMRLSCRASGYTFTSYVMHWVRQAPGRRPEWIGYINPYNDATKYARKFQGRATLTSDKYSDTAFLELRSLTSDDTAVYYCARGGYDYDGDYWGRGAPVTVSS VL: EIVLTQSPGTLSLSPGERATLSCHASQNINVWLSWYQQKPGQAPRLLIYKASNLHTGIPDRFSGSGSGTDFTLTISRLEPEDFAVYYCQQGQSYPFTFGQGTKVEIK |  | EC50 [2]: 0.12 nM |
| humanized anti-CD47 mAb KH2L2 (antibody, V domains shown, also called anti-CD47 parental mAb) VH: QVQLVQSGAEVKKPGASVKVSCKASGYTFTSYWMHWVRQAPGQGLEWIGNIDPSDSETHYAQKFQGRVTLTVDKSTSTVYMELSSLRSEDTAVYYCAGTDLAYWGQGTLVTVSS VL: EIVLTQSPGTLSLSPGERATLSCHASQNINVWLSWYQQKPGQAPRLLIYKASNLHTGIPDRFSGSGSGTDFTLTISRLEPEDFAVYYCQQGQSYPFTFGQGTKVEIK | 0.18 |  |
| humanized anti-CD47 mAb KH1L3 (antibody, V domains shown) VH: QVQLVQSGAEVKKPGSSVKVSCKASGYTFTSYWMHWVRQAPGQGLEWIGNIDPSDSETHYAQKFQGRATLTVDKSTSTAYMELSSLRSEDTAVYYCAGTDLAYWGQGTLVTVSS VL: EIVMTQSPATLSLSPGETAIISCHASQNINVWLSWYQQRPGQAPRLLIYKASNLHTGIPDRFSGSGWGTDFNLSISNLESGDFGVYYCQQGQSYPFTFGQGTKVEIK | 0.76 |  |
| humanized anti-CD47 mAb KH3L3 (antibody, V domains shown) VH: EVRLSQSGGQMKKPGESMRLSCRASGYTFTSYWMHWVRQAPGRRLEWIGNIDPSDSETHYARKFQGRATLTVDKYSDTAFLELRSLTSDDTAVYYCAGTDLAYWGRGAPVTVSS VL: EIVMTQSPATLSLSPGETAIISCHASQNINVWLSWYQQRPGQAPRLLIYKASNLHTGIPDRFSGSGWGTDFNLSISNLESGDFGVYYCQQGQSYPFTFGQGTKVEIK | 0.18 |  |
| humanized anti-CD47 mAb KH3L2 (antibody, V domains shown) VH: EVRLSQSGGQMKKPGESMRLSCRASGYTFTSYWMHWVRQAPGRRLEWIGNIDPSDSETHYARKFQGRATLTVDKYSDTAFLELRSLTSDDTAVYYCAGTDLAYWGRGAPVTVSS VL: EIVLTQSPGTLSLSPGERATLSCHASQNINVWLSWYQQKPGQAPRLLIYKASNLHTGIPDRFSGSGSGTDFTLTISRLEPEDFAVYYCQQGQSYPFTFGQGTKVEIK | 0.08 |  |
| humanized anti-DLL3 mAb H1L3 (antibody, V domains shown) VH: EVRLSQSGGQMKKPGESMRLSCRASGYTFTSYVMHWVRQAPGRRPEWIGYINPYNDATKYARKFQGRATLTSDKYSDTAFLELRSLTSDDTAVYYCARGGYDYDGDYWGRGAPVTVSS VL: EIVMTQSPATLSLSPGETAIISCHASQNINVWLSWYQQRPGQAPRLLIYKASNLHTGIPDRFSGSGWGTDFNLSISNLESGDFGVYYCQQGQSYPFTFGQGTKVEIK |  | EC50 [2]: 0.15 nM |
